Measurements taken from patent US20240317847A1 (Bayer, published 2024).

Columns and labels:
human IL-11 = molecular target: T1, human IL-11 (human, UniProt P20809 22-199); experiment: SPR (Biacore), 37 C, antibody captured via anti-Fc, IL-11 as analyte
T1 construct: Invigate recombinant protein; biotinylated when immobilized in the Di-complex ELISA; also called hIL11; hIL-11
T1 sequence: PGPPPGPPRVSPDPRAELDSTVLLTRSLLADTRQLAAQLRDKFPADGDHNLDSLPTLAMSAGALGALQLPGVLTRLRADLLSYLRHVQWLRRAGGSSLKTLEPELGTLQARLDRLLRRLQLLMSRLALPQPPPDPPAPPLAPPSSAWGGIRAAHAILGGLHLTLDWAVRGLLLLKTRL

cynomolgus IL-11 = molecular target: T2, cynomolgus IL-11 (cynomolgus, UniProt P20808 22-199); experiment: as above
T2 construct: Invigate recombinant protein; also called cIL11; Macaca IL-11
T2 sequence: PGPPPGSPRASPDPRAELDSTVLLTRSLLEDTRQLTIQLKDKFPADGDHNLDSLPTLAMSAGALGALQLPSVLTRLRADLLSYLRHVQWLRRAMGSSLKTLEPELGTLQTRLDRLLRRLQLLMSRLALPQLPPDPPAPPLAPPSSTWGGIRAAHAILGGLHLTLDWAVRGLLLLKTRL

rat IL-11 = molecular target: T3, rat IL-11 (rat, UniProt Q99MF5 22-199); experiment: as above
T3 construct: Invigate recombinant protein; also called rIL11
T3 sequence: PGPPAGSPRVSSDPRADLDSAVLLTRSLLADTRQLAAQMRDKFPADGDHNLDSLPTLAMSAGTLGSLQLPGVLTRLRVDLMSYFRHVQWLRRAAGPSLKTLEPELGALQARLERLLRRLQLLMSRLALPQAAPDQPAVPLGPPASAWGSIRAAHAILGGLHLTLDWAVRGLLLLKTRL

human IL2Ra = molecular target: T4, human IL2Ra (human, UniProt P01589 22-240, limits assumed); experiment: ELISA on coated IL2Ra, signal ratio to isotype control TPP-10159 at 3.3E-7 M antibody
T4 construct: coated on the ELISA plate; also called IL-2 receptor alpha
T4 sequence (looked up): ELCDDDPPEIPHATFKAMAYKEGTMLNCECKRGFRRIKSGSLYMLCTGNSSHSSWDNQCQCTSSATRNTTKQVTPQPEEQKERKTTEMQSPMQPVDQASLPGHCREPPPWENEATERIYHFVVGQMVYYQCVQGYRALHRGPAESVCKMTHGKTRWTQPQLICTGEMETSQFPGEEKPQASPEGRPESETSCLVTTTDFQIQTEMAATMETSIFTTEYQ
Experimental: IL2RA (Peprotech, Germany, #200-02RC) was coated at 1 or 0 μg/ml (buffer only control) in 30 μl coating buffer (Candor, #113500) per well on a 384 well microtiter plate (Maxisorb, Nunc, #460518) over night at 4-8° C. After two washes with 50 μl/well washing buffer (PBS+0.05% Tween, pH 7.4), the plates were incubated for two hours at room temperature with 50 μl/well SmartBlock (Candor, #113500). After blocking, the plates were washed three times with washing buffer. Then, a dilution series of the respective antibody (1E-7 [M] down to 2E-13 [M]) in PBS+0.05% Tween, 10% SmartBlock were added in 30 μl to the microtiter plate and incubated for 90 min at room temperature. After three additional washes, 30 μl anti mouse IgG HRP-conjugated antibody (Biotechne, HAF007), diluted 1:1000 in PBS+0.05% Tween (pH 7.4), were added per well and incubated for one hour. After three additional washes, a mixture of Amplex red (Invitrogen, #12222, 10 mM stock solution in DMSO) 1:1000 diluted in PBS and H2O2 (30%, Merck, #107209)) diluted 1:10000 in PBS were added as substrate with 30 μl per well and incubated for 20 min in the dark. Relative fluorescence was measured with a microtiter plate reader at 535/590 nm.
IgG converted antibodies TPP-were tested for binding to IL2Ra as described in Example 20. The ratios of the signals obtained at an antibody concentration of 3.3E-7 [M] for IgG converted antibody versus the isotype control TPP-10159 were calculated and are shown in Table E22.

B1: TPP-29519 (antibody, mouse IgG1)
heavy: QVQLVESGGGVVQPGRSLRLSCAASGFTFSHYDMHWVRQAPGKGLEWVAVISYHGSVKFYADSVKGRFTISRDNSKNTLYLQMNSLRAEDTAVYYCARTPGFHFDYWGQGTLVTVSSAKTTPPSVYPLAPGSAAQTNSMVTLGCLVKGYFPEPVTVTWNSGSLSSGVHTFPAVLQSDLYTLSSSVTVPSSTWPSETVTCNVAHPASSTKVDKKIVPRDCGCKPCICTVPEVSSVFIFPPKPKDVLTITLTPKVTCVVVDISKDDPEVQFSWFVDDVEVHTAQTQPREEQFNSTFRSVSELPIMHQDWLNGKEFKCRVNSAAFPAPIEKTISKTKGRPKAPQVYTIPPPKEQMAKDKVSLTCMITDFFPEDITVEWQWNGQPAENYKNTQPIMDTDGSYFVYSKLNVQKSNWEAGNTFTCSVLHEGLHNHHTEKSLSHSPGK
light: QSVLTQPPSASGTPGQRVTISCSGSSSNIGSNYVSWYQQLPGTAPKLLIYYDDLRPSGVPDRFSGSKSGTSASLAISGLRSEDEADYYCSAWDDSLSGVVFGGGTKLTVLGQPKSSPSVTLFPPSSEELETNKATLVCTITDFYPGVVTVDWKVDGTPVTQGMETTQPSKQSNNKYMASSYLTLTARAWERHSSYSCQVTHEGHTVEKSLSRADCS
notes: mIgG1, Lambda
Kd (human IL-11): 0.01 nM | Kd (cynomolgus IL-11): 0.61 nM | Kd (rat IL-11): 0.023 nM | Antibody/Isotype Control Ratio of IL-2Ra Binding Signals (human IL2Ra): 0.7 ratio
